In the assay the target is spike, depending on domain and variant. The assay can be described thus: ELISA. A general note: In an ELISA, binding on a coated surface is turned into a signal by an enzyme label.

The Kd is the concentration at which binding is half-saturated. Low values mean a tighter complex, high ones a looser complex.

Chain of LRRC15-Fc (Q8TF66 22-538): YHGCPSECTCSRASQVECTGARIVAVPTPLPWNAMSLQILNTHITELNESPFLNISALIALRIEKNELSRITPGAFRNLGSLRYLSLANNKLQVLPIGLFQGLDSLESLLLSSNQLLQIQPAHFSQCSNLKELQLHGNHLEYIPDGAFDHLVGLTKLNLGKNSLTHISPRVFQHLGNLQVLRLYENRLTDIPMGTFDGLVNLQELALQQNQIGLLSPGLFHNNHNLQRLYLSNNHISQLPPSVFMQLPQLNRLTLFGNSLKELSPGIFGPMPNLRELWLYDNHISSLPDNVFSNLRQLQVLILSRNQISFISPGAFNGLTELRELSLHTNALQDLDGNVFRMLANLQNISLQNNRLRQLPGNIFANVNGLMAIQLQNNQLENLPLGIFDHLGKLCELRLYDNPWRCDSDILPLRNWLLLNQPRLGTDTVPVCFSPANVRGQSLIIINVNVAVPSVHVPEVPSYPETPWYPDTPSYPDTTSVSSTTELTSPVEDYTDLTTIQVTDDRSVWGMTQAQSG

As to “LRRC15-Fc (from UniProt Q8TF66) (Fc fusion)”, the Kd lay within 43 to 148 nM.

These data come from paper PMC8629192.
